Series [1] relates to HeLa Kyoto. Put plainly: solubility change mitosis vs G1/S (difference of NP-40 vs SDS log2 ratios) (log2 ratio difference); higher = more soluble in mitosis.
Series [2] has as its system HeLa Kyoto. Kind of series: melting temperature (median over replicates), in situ; higher = more thermally stable.
For series [3], the system named is HeLa Kyoto. Put plainly: thermal stability score vs G1/S (z-score of summed log2 fold changes over temperatures); higher = more thermally stable than in G1/S.
For series [4], the system named is HeLa Kyoto. Put plainly: solubility in G1/S (NP-40 vs SDS abundance) (log2 ratio); higher = more soluble. The conditions noted are these: cell cycle stage: G1/S.
[5] abbreviates: cell cycle stage: early G1 (4.5 h after nocodazole release).

This note sets out measurements from the supplement of paper PMC5998384.
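For melting temperature (median over replicates), in situ in this document: HeLa Kyoto cells synchronized by double thymidine or nocodazole block, proteins quantified by TMT10plex mass spectrometry, three independent biological replicates.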
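For solubility change mitosis vs G1/S (difference of NP-40 vs SDS log2 ratios) in this document: synchronized HeLa Kyoto cells (double thymidine block for G1/S, nocodazole release for mitosis), protein amounts in NP-40 versus SDS lysates quantified by mass spectrometry, three biological replicates.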
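For solubility in G1/S (NP-40 vs SDS abundance) in this document: HeLa Kyoto cells arrested at G1/S by double thymidine block, proteins quantified by TMT10plex mass spectrometry in mild NP-40 versus SDS extracts, three biological replicates.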
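For thermal stability score vs G1/S (z-score of summed log2 fold changes over temperatures) in this document: synchronized HeLa Kyoto cells, proteins quantified by TMT10plex mass spectrometry, three biological replicates, mitosis taken 0.5 h after nocodazole release, G1/S directly after double thymidine block.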

For “MATEHVNGNGTEEPMDTTSAVIHSENFQTLLDAGLPQKVAEKLDEIYVAGLVAHSDLDERAIEALKEFNEDGALAVLQQFKDSDLSHVQNKSAFLCGVMKTYRQREKQGTKVADSSKGPDEAKIKALLERTGYTLDVTTGQRKYGGPPPDSVYSGQQPSVGTEIFVGKIPRDLFEDELVPLFEKAGPIWDLRLMMDPLTGLNRGYAFVTFCTKEAAQEAVKLYNNHEIRSGKHIGVCISVANNRLFVGSIPKSKTKEQILEEFSKVTEGLTDVILYHQPDDKKKNRGFCFLEYEDHKTAAQARRRLMSGKVKVWGNVGTVEWADPIEDPDPEVMAKVKVLFVRNLANTVTEEILEKAFSQFGKLERVKKLKDYAFIHFDERDGAVKAMEEMNGKDLEGENIEIVFAKPPDQKRKERKAQRQAAKNQMYDDYYYYGPPHMPPPTRGRGRGGRGGYGYPPDYYGYEDYYDYYGYDYHNYRGGYEDPYYGYEDFQVGARGRGGRGARGAAPSRGRGAAPPRGRAGYSQRGGPGSARGVRGARGGAQQQRGRGVRGARGGRGGNVGGKRKADGYNQPDSKRRQTNNQNWGSQPIAQQPLQGGDHSGNYGYKSENQEFYQDTFGQQWK [SYNCRIP]”, in the series on HeLa Kyoto [1], the “solubility change mitosis (log2)” value came to 0.0879. The results for the melting temperature in the series on HeLa Kyoto [2] (cell cycle stage: G1/S) and with HeLa Kyoto [2] (cell cycle stage: mitosis) were 51.3 °C and 50.8 °C, respectively. In addition, the thermal stability score with HeLa Kyoto [3] (setting [5]) is -1.08; in the series with HeLa Kyoto [3] (cell cycle stage: mitosis) it was -0.356. Besides, the “solubility in G1/S (log2)” value with HeLa Kyoto [4] was 0.0281.
As to “MATEQRPFHLVVFGASGFTGQFVTEEVAREQVDPERSSRLPWAVAGRSREKLQRVLEKAALKLGRPTLSSEVGIIICDIANPASLDEMAKQATVVLNCVGPYRFYGEPVIKACIENGASCIDISGEPQFLELMQLKYHEKAADKGVYIIGSSGFDSIPADLGVIYTRNKMNGTLTAVESFLTIHSGPEGLSIHDGTWKSAIYGFGDQSNLRKLRNVSNLKPVPLIGPKLKRRWPISYCRELKGYSIPFMGSDVSVVRRTQRYLYENLEESPVQYAAYVTVGGITSVIKLMFAGLFFLFFVRFGIGRQLLIKFPWFFSFGYFSKQGPTQKQIDAASFTLTFFGQGYSQGTGTDKNKPNIKICTQVKGPEAGYVATPIAMVQAAMTLLSDASHLPKAGGVFTPGAAFSKTKLIDRLNKHGIEFSVISSSEV [SCCPDH]”, in the series on HeLa Kyoto [1], the “solubility change mitosis (log2)” value worked out at 0.0063. Besides, the figures for the melting temperature with HeLa Kyoto [2] (cell cycle stage: G1/S) and in the series with HeLa Kyoto [2] (cell cycle stage: mitosis) were 53.2 °C and 54 °C, respectively. Besides, the thermal stability score in the series with HeLa Kyoto [3] (setting [5]) is 0.42; in the series on HeLa Kyoto [3] (cell cycle stage: mitosis), -2.32. Moreover, the “solubility in G1/S (log2)” value in the series with HeLa Kyoto [4] is -0.086.
For “MATGGYRTSSGLGGSTTDFLEEWKAKREKMRAKQNPPGPAPPGGGSSDAAGKPPAGALGTPAAAAANELNNNLPGGAPAAPAVPGPGGVNCAVGSAMLTRAAPGPRRSEDEPPAASASAAPPPQRDEEEPDGVPEKGKSSGPSARKGKGQIEKRKLREKRRSTGVVNIPAAECLDEYEDDEAGQKERKREDAITQQNTIQNEAVNLLDPGSSYLLQEPPRTVSGRYKSTTSVSEEDVSSRYSRTDRSGFPRYNRDANVSGTLVSSSTLEKKIEDLEKEVVRERQENLRLVRLMQDKEEMIGKLKEEIDLLNRDLDDIEDENEQLKQENKTLLKVVGQLTR [PAWR]”, in the series with HeLa Kyoto [1], the “solubility change mitosis (log2)” value turned out to be 0.127. Moreover, the melting temperature in the series on HeLa Kyoto [2] (cell cycle stage: G1/S) amounted to 60.6 °C; in the series on HeLa Kyoto [2] (cell cycle stage: mitosis) it was 55.7 °C. For the same sequence, the values for the thermal stability score in the series with HeLa Kyoto [3] (setting [5]) and in the series with HeLa Kyoto [3] (cell cycle stage: mitosis) were -0.931 and -1.76, respectively. Moreover, the “solubility in G1/S (log2)” value with HeLa Kyoto [4] came out at 0.552.
As for “MATGQKLMRAVRVFEFGGPEVLKLRSDIAVPIPKDHQVLIKVHACGVNPVETYIRSGTYSRKPLLPYTPGSDVAGVIEAVGDNASAFKKGDRVFTSSTISGGYAEYALAADHTVYKLPEKLDFKQGAAIGIPYFTAYRALIHSACVKAGESVLVHGASGGVGLAACQIARAYGLKILGTAGTEEGQKIVLQNGAHEVFNHREVNYIDKIKKYVGEKGIDIIIEMLANVNLSKDLSLLSHGGRVIVVGSRGTIEINPRDTMAKESSIIGVTLFSSTKEEFQQYAAALQAGMEIGWLKPVIGSQYPLEKVAEAHENIIHGSGATGKMILLL [CRYZ]”, in the series with HeLa Kyoto [1], the “solubility change mitosis (log2)” value was -0.187. The results for the melting temperature with HeLa Kyoto [2] (cell cycle stage: G1/S) and in the series on HeLa Kyoto [2] (cell cycle stage: mitosis) were 55.2 °C and 55 °C, respectively. Also, the thermal stability score in the series on HeLa Kyoto [3] (setting [5]) was -0.614; in the series on HeLa Kyoto [3] (cell cycle stage: mitosis), -0.806. In addition, the “solubility in G1/S (log2)” value with HeLa Kyoto [4] is 0.212.
In the case of “MATHGQTCARPMCIPPSYADLGKAARDIFNKGFGFGLVKLDVKTKSCSGVEFSTSGSSNTDTGKVTGTLETKYKWCEYGLTFTEKWNTDNTLGTEIAIEDQICQGLKLTFDTTFSPNTGKKSGKIKSSYKRECINLGCDVDFDFAGPAIHGSAVFGYEGWLAGYQMTFDSAKSKLTRNNFAVGYRTGDFQLHTNVNDGTEFGGSIYQKVCEDLDTSVNLAWTSGTNCTRFGIAAKYQLDPTASISAKVNNSSLIGVGYTQTLRPGVKLTLSALVDGKSINAGGHKVGLALELEA [VDAC2]”, in the series with HeLa Kyoto [1], the “solubility change mitosis (log2)” value is -0.0952. Also, the melting temperature in the series on HeLa Kyoto [2] (cell cycle stage: G1/S) was 59.9 °C; in the series on HeLa Kyoto [2] (cell cycle stage: mitosis), 60.3 °C. For the same sequence, the thermal stability score is -1.16 in the series with HeLa Kyoto [3] (setting [5]) and -4.22 in the series on HeLa Kyoto [3] (cell cycle stage: mitosis). Also, the “solubility in G1/S (log2)” value in the series on HeLa Kyoto [4] was -0.125.
